# Data taken from the nanobody polyreactivity screen of Harvey et al. (2022).
# Assay: yeast display, Sf9 membrane polyspecificity reagent, FACS + sequencing; frameworks hold sequencing errors
# In short: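 Galactose induction of a Saccharomyces cerevisiae BJ5465 synthetic nanobody display library ran 36–48 hours. The cells were then stained for 1 hour at 4 °C with 10% biotinylated, detergent-solubilized Sf9 membrane reagent, pulled down on streptavidin microbeads and FACS-sorted into low and high (top ~1%) gates on expression and reagent-binding fluorescence. Labels for polyreactivity follow the gate of origin.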
row,Sequence,polyreactivity (PSR sort gate)
1,QVQLVESGGGLVQAGGSLRLSCAASGRTFYSNAMGWYRQAPGKERELVAAITSTDDSTYYADSVKGRFTISRDNAKNTVYLPMNSLKPEDTAVYYCAAESGYPVYTYVSSGDYWGQGTQVTVSS,low polyreactivity
2,QVQLVESGGGLVQAGGSLRLSCAASGSNFNIKAIGWYRQAPGKERELVATIPSGGTTSSADSVNGRFTISRDNAKNTVYLQMNSLKPEDTAVYYCYAEIYPIVKAGRHHRRRYDYWGQATQVTVSS,low polyreactivity
3,QVQLVESGGGLVQAGGSLRLSCAASGLTFPYYDMGWYRQAPGKERELVATITISGRTNYADSVKGRFTISRDNAKNTVYLQMNSLKPEDTAVYYCNARYRGRVYDRFGYWGQGTQVTVSS,high polyreactivity
4,QVQLVESGGGLVQAGGSLRLSCAASGSIFVPYAMGWYRPAPGKERELVAAISWSGGSTYYADSVKGRFTISRDNAKNTVYLHMNSLKPEDTAVYYCAVRFRSYTSYYWIDYEYWGQGTQVTVSS,high polyreactivity
5,QVQLVESGGGLVQAGGSLSLSCAASGRTFSQYAMGWYRPAPGTERELVAAIDRTGDSTYYADSVKGRFTISRDNAKNTVYLQMNSLKPEDTAVYYCNRRYTRVRSRKGYDYWGQGTQVTVSS,high polyreactivity
6,QVQHVESGGGLVQAGGSLRLSCAASGRIFYGNAMGWYRQAPGKERELVAGITRSSGTSTDYADSVKGRFTISRDNAKNSVYLQMNSMKPEDCAVYYCAAPPDSYYFYKVPVVPYDYWGQGTQVTVSS,low polyreactivity
7,QVQLVESGGGLVQAGGSLRLSCAASGSIFYYAMGWYRQATGKERELVAAITTGDGTNYADSVKGRFTISRDNAKNTVYLQMNSLKPEDTAVYYCAKSTYKPYYYYFPYDYWGQGTQVTVSS,low polyreactivity
8,QVQLVESGGGLVQAGGSLRLSCAASGRTFKHYAMGWYRQAPGKERELVAAITSGGSTYYADSVKGRFTISRDNAKNTVYLQMNSLKPEDTAVYYCNKESYFDTYRRYDSWGQGTQVTVSS,low polyreactivity
9,QVQLVESGGGLVQAGGSLRLSCAASAFTFGNYAMGWYRQAPGKERELVAVISRGGSTYYADSVKGRFTISRDYAKNTVYLQMNSLKPEDTAVYFCAARAFPPYGYDYWGQGTQVTVSS,high polyreactivity
10,QVQLVESGGGLVQAGGSLRLSCAASGSIFNANAMGWYRQAPAKERELVAAITPSDGDTYYADSVKGRFTISRDNAKNTVYLQMNSLKPEDTAVYYCAAEDDPGEYEYWGQGTQVTVSS,low polyreactivity
11,QVQLVESGGGLVQAAGSLRLSCAASGYTSSVYAMGWYIQAHGKERELVAAISADGGSTYYADSVKGRFTISRDNAKNTVYLQMNSLKPEDTAVYYCAKYTYPYTPYSWWYDYWGQGTQVTVSS,low polyreactivity
12,QVHLVESGGGLVQAGGSLRLSCAASGSTFRDYDMGWYRQAPGKERELVAAISLSGGLTHYADSVKGRFTISRDNGKNTVYLQMNSLKPEDTAVYYCAARNTGPVQYYYWGQGTQVTVSS,low polyreactivity
13,QVQLVESGGGLVQAGGSLRLSCAASGFTFYYYAMGWYRQAPGKERELVASISSRGGSTYYADSVKGRFTISRDNAKNTVYLQMNSLKPEDTAVYYCAARTRRYKFDYWGQGTQVTVSS,high polyreactivity
14,QVQLVESGGGLVQEGGSLRLSCAASGITFKTYAMGWYRQAPGKESELVATINRGSRTNYADPVKGRFTISRDNAKNTVYLQMNSLKPEDTAVYYCAAHYTTFIPSPDGDYLGQGTQVTVSS,low polyreactivity
15,QVQLVESGGGLVQAGGSLRLSCSSSGYTFYGYAMGWCRQAPGKERELVADISWSGTNTNYADSVKGRFTISRDNAKNTVYLQMNSLKQDDTAVYYGAAGYYYRGFYTEDYWGQGTQVTVSS,high polyreactivity
16,QVQLVESGGGLVQAGGSLRLSCAASGRTFRDNAMGWYRQAPGKERELVAVITVDSSSTYYADSVKGRFTISRDNAKNTVYLQMNSLKPEDTAVYYCAAELYYFWFDYWGQGTQVTVSS,low polyreactivity
17,QVQHVESGGGLVQAGGSLRLSCAASGSTFGWYAMGWYRQAPGKVRELVAAITRRGTRTYYADSVKGRFTISRDNAKNTVYLQMNSLKPEDTAVYYCNARGFPGKFGYWGQGTQVTVSS,high polyreactivity
